Test results taken from patent US11214614B2, “LTBP complex-specific inhibitors of TGFβ and uses thereof” (Scholar Rock, Inc., priority 2019, dated 2022).
Substitutions are numbered along the chain they refer to.

B1: SR-AB42: cycle 3 antibody, lineage SR-AB23; CDRs SEQ ID NO: 166-171; HCVR SEQ ID NO: 318, LCVR SEQ ID NO: 319 (antibody, V domains shown)
VH: QVQLVESGGGVVQPGRSLRLSCAASGFTFRSYVMHWVRQAPGKGLEWVAVISHEGSLKYYADSVKGRFTISRDNSKNTLYLQMNSLRAEDTAVYYCARPRIAARRGGFGYWGQGTLVTVSS
VL: NFMLTQPHSVSESPGKTVTISCTRSSGNIDNNYVQWYQQRPGSSPTTVIYEDNQRPSGVPDRFSGSIDSSSNSASLTISGLKTEDEADYYCQSYDYDTQGVVFGGGTKLTVL
B2: SR-AB22: second-round (CDR-H3 mutagenesis) antibody, lineage SR-AB14; CDRs SEQ ID NO: 108-113 (antibody, V domains shown)
VH: B1 VH with R98V
VL: B1 VL with Y96S, T98N
B3: SR-AB23: second-round (CDR-H3 mutagenesis) antibody, lineage SR-AB14; CDRs SEQ ID NO: 116-121 (antibody, V domains shown)
VH: B1 VH
VL: B1 VL with Y96S, T98N
B4: SR-AB63: cycle 3 antibody, lineage SR-AB26; CDRs SEQ ID NO: 292-297; HCVR SEQ ID NO: 360, LCVR SEQ ID NO: 361 (antibody, V domains shown)
VH: QLQLQESGPGLVKPSETLSLTCTVSGGSIRSSSYYWGWIRQPPGKGLEWIGSISYSATTYYNPSLKSRVTISVDTSKNQFSLKLSSVTAADTAVYYCAGDPSYDSIAGMQVWGQGTTVTVSS
VL: DIQLTQSPSSLSASVGDRVTITCRASQSISSYLNWYQQKPGKAPKLLIYAASNLQSGVPSRFSGSGSGTDFTLTISSLQPEDFATYYCQQSFDWPLTFGGGTKVEIK

How the values were obtained:
Test in all cases: Octet (BLI) binding, IgG captured on AHC tips, antigen at 100 nM
huGARP proTGFβ1 = huGARP proTGFβ1 (Homo sapiens, UniProt P01137); conditions: for ForteBio IgG KD Hu GARP-proTGFβ1 (M) Avid: IgG1-agly, 1:1 fit; for ForteBio IgG KD Hu GARP-proTGFβ1 in solution (M) Avid: Table 10, same assay conditions as Table 9
Sequence of huGARP proTGFβ1 (P01137 30-390): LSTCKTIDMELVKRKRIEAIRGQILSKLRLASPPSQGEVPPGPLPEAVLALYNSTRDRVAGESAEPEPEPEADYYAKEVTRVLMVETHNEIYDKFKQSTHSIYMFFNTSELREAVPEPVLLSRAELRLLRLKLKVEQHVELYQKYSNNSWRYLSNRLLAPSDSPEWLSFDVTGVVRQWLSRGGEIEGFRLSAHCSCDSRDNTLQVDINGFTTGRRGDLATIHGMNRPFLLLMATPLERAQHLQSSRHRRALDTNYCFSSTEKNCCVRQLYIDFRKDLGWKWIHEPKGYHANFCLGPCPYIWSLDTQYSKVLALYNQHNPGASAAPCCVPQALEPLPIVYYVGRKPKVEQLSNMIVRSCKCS
Sequence of huGARP proTGFβ1 (Q14392 18-627 partner limits assumed): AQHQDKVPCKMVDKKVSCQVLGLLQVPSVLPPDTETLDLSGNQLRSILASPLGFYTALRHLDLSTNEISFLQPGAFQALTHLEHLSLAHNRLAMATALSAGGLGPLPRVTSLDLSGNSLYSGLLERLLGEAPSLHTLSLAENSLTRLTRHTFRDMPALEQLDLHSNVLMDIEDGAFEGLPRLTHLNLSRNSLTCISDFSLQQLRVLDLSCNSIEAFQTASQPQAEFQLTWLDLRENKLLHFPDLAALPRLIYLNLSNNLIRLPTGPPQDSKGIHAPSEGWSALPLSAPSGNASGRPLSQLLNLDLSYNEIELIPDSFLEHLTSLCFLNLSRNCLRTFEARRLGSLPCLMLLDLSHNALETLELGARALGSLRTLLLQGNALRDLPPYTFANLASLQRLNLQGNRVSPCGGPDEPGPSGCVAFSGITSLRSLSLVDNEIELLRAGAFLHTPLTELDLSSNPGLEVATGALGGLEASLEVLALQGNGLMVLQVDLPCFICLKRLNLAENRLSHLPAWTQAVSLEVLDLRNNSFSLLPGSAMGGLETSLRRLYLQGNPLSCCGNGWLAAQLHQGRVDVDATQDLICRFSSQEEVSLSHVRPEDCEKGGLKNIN
Outline: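 Antibody loaded at 1 μg/mL onto anti-human Fc capture biosensors, then exposed to human GARP-proTGFβ1 at 100 nM in 1× kinetics buffer with 1000 rpm shaking. Association 3 min, dissociation 3 or 5 min; KD from 1:1 local full fit.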

huLTBP1 proTGFβ1 = huLTBP1 proTGFβ1 (Homo sapiens, UniProt P01137+Q14766); conditions: for Hu LTBP1-proTGFβ1 Kon / Hu LTBP1-proTGFβ1 Koff: Table 9, cycle 3; for Hu LTBP1-proTGFβ1 Kon / Hu LTBP1-proTGFβ1 Koff / Affinity for human LTBP1 complexed with proTGFβ1: IgG1-agly; for Hu LTBP1-proTGFβ1 Kon: 1:1 fit; for Hu LTBP1-proTGFβ1 Koff: 5-minute dissociation; for Response, binding to human LTBP-1 proTGFb1: Octet, antibody immobilized (loading sample); for Affinity for human LTBP1 complexed with proTGFβ1: Table 8, Octet
Sequence of huLTBP1 proTGFβ1 (P01137 30-390): as the sequence (P01137 30-390) above
Sequence of huLTBP1 proTGFβ1 (Q14766 347-1721 limits assumed): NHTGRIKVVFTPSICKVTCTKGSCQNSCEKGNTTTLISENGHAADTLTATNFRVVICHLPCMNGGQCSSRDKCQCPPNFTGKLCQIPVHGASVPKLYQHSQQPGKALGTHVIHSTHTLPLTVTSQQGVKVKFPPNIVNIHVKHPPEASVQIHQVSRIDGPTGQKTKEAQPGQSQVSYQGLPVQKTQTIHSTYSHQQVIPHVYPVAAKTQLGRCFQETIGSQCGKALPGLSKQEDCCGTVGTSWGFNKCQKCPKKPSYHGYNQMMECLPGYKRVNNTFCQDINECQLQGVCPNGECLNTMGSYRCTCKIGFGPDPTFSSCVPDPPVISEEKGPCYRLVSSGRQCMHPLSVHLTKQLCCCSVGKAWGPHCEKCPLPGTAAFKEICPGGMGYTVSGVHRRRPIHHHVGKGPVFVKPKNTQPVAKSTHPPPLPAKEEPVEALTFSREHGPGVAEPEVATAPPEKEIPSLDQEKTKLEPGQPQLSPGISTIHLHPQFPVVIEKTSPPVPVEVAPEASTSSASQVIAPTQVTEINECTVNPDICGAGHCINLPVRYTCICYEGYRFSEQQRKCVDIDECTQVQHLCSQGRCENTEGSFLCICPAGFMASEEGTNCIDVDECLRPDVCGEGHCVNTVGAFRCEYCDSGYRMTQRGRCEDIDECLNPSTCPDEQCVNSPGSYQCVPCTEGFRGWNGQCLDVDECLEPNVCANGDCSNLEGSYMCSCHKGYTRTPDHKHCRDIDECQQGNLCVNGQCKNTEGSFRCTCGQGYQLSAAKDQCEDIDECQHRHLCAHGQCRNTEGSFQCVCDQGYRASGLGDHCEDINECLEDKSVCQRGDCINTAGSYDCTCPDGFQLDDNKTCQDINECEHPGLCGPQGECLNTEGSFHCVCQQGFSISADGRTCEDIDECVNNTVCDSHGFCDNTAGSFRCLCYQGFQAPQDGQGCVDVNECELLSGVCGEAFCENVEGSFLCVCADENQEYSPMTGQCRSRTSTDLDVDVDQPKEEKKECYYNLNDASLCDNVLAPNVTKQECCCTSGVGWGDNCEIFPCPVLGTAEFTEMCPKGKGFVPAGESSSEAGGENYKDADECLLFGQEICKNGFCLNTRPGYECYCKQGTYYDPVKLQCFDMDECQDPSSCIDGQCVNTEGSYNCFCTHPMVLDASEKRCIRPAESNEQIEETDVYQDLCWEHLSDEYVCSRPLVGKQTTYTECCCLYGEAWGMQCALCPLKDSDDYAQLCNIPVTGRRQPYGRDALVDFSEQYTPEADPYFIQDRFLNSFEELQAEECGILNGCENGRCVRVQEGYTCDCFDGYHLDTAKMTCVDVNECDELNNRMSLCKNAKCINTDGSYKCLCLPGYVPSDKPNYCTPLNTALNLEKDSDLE
Outline: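 Antibodies were captured on anti-human Fc biosensors at 1 μg/mL (~7 nM), to a maximum response of 1 nm. Antigen complex was run at a single 100 nM in 1× kinetics buffer, shaking at 1000 rpm. Association was 3 min and dissociation 3 min (5 min in later rounds), with KD from a local, full 1:1 fit.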

huLTBP3 proTGFβ1 = huLTBP3 proTGFβ1 (Homo sapiens, UniProt P01137+Q9NS15); conditions: IgG1-agly; for Hu LTBP3-proTGFβ1 Kon / Hu LTBP3-proTGFβ1 Koff: Table 9, cycle 3; for Hu LTBP3-proTGFβ1 Koff: 5-minute dissociation; for Affinity for human LTBP3 complexed with proTGFβ1: Table 8, Octet
Sequence of huLTBP3 proTGFβ1 (P01137 30-390): as the sequence (P01137 30-390) above
Sequence of huLTBP3 proTGFβ1 (Q9NS15 44-1303): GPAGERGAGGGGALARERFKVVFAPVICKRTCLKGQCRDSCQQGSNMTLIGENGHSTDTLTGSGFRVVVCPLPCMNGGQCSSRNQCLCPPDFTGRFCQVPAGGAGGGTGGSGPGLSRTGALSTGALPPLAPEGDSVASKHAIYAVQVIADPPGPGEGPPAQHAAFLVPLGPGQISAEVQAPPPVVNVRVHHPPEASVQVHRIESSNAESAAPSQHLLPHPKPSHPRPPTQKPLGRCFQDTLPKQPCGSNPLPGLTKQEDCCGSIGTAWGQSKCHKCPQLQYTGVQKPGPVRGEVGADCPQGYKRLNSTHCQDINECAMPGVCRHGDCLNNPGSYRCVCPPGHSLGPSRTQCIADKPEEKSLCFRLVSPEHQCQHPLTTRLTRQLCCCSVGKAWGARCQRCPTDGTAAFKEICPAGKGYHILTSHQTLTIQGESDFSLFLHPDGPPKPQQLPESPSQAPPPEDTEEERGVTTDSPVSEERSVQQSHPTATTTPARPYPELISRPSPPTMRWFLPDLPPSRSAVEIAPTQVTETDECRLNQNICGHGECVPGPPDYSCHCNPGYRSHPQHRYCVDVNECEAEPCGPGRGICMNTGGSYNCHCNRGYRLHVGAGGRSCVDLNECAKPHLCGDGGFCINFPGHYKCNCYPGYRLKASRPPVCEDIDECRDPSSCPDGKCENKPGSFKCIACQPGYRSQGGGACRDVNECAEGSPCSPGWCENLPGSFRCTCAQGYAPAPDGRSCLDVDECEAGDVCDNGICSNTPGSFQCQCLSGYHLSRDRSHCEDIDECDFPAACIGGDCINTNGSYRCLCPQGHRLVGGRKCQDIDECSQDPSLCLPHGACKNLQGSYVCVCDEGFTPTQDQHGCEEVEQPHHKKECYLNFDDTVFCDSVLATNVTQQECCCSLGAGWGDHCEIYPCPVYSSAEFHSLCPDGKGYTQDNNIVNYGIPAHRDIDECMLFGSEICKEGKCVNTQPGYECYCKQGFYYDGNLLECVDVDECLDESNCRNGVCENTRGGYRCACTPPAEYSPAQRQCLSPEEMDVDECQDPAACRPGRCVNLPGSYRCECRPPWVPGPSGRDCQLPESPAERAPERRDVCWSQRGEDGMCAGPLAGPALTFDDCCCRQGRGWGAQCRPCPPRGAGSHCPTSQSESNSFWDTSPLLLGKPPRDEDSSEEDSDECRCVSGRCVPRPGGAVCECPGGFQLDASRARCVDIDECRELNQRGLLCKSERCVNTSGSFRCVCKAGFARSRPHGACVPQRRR
Outline: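 Antibodies loaded at 1 μg/mL onto anti-human Fc sensors were exposed to each TGFβ1 complex at 100 nM in kinetics buffer. Association ran 3 min; dissociation was 3 min in one protocol and 5 min in another. KD came from a 1:1 fitting model.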

[1] = Table 9, cycle 3, N.B. = non-binder under conditions of this assay
[2] = N.B. = non-binder under conditions of this assay
[3] = Table 8, P.F. = Poor Fit, N.B. = Non-binder under conditions of this assay

Row | Molecule | ForteBio IgG KD Hu GARP-proTGFβ1 (M) Avid (huGARP proTGFβ1; [1]) | ForteBio IgG KD Hu GARP-proTGFβ1 in solution (M) Avid (huGARP proTGFβ1; [2]) | Hu LTBP1-proTGFβ1 Kon (huLTBP1 proTGFβ1) [M⁻¹ s⁻¹] | Hu LTBP1-proTGFβ1 Koff (huLTBP1 proTGFβ1) [s⁻¹] | Hu LTBP3-proTGFβ1 Kon (huLTBP3 proTGFβ1; 1:1 fit) [M⁻¹ s⁻¹] | Hu LTBP3-proTGFβ1 Koff (huLTBP3 proTGFβ1) [s⁻¹] | ForteBio IgG KD Hu GARP-proTGFβ1 (M) Avid (huGARP proTGFβ1; [3]) | Response, binding to human LTBP-1 proTGFb1 (huLTBP1 proTGFβ1) [nm] | Affinity for human LTBP1 complexed with proTGFβ1 (huLTBP1 proTGFβ1) | Affinity for human LTBP3 complexed with proTGFβ1 (huLTBP3 proTGFβ1) | ForteBio IgG KD Hu LTBP3-proTGFβ1 (M) Avid (huLTBP3 proTGFβ1; Table 8, 1:1 fit, P.F. = Poor Fit, N.B. = Non-binder under conditions of this assay)
1 | B1 | N.B. | N.B. | 154000 | 6e-05 | 232000 | 6e-05 |  |  |  |  | 
2 | B2 |  |  |  |  |  |  | P.F. | 0.4317 | single digit nM | single digit nM | P.F.
3 | B3 |  |  |  |  |  |  | N.B. | 0.3449 | single digit nM | single digit nM | 
4 | B4 | N.B. | N.B. | 118000 | 7.24e-05 | 159000 | 7.84e-05 |  |  |  |  | 
